Assay results: PMC11228805

Biological target: gp41 (Q567K/A582T/A532V/I535M/L543Q/K574R/S752F/I756F) of the HIV-1AD8 Tri FPPR Bam Envs with K574R (HIV-1 AD8)
Experiment: gp120 shedding from virus particles

Substance | fold resistance to gp120 shedding (CD4mc+cold) against the Tri Bam Env | fold reduction of gp120 shedding against the Tri FPPR Bam Env
gp120 (Q114E/K59A) of the HIV-1AD8 Tri FPPR Bam-K59A and Tri FPPR Bam-K59A/K574R Envs (natural protein) | 40 times | –
gp120 (Q114E) of the HIV-1AD8 Tri Bam, Tri FPPR Bam and Tri FPPR Bam-K574R Envs (natural protein) | – | 3.9 fold
